The experiment has as its target CD64 (FcγRI) (human) (UniProt P12314). Kind of experiment: cell-based or functional assay.

Values joined by “and” are separate entries in the source; they are usually repeats but may differ in a detail not shown here. Equal entries are not always repeated.

Sequence of UniProt P12314 (P12314 16-374): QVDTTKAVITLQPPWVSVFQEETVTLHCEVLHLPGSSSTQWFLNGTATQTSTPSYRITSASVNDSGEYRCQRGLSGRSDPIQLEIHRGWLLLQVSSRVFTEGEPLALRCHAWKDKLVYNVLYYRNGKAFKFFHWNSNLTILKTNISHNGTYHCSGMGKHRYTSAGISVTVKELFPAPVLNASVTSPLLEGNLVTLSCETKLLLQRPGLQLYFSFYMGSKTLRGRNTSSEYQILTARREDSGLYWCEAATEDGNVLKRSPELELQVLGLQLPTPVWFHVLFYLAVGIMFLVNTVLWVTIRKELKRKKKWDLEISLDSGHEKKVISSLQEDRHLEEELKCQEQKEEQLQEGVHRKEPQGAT

In turn, H22(scFv)-MAP displayed an IC50/EC50, XTT growth inhibition, HL-60 cells of 0.04 nM.

Consider H22(scFv)-Ang, for which the IC50/EC50, XTT growth inhibition, HL-60 cells worked out at 10 nM; the IC50/EC50, XTT growth inhibition, U937 cells is 0.2 nM; the IC50/EC50, XTT growth inhibition, hM1φ is 0.29 nM and 0.108 nM.

B1: GBR201K-H22(scFv) (scFv)
chain: HIDDDDKIIGGHEAKPHSRPYMAFLMIWDQKSLKRCGGFLIRDDFVLTAAHCWGSSINVTLGAHNIKEQEPTQQFIPVKRAIPHPAYNPKNFSNDIMLLQLERKAKRTRAVQPLRLPSNKAQVKPGQTCSVAGWGQTAPLGKHSHTLQEVKMTVQEDRKCESDLRHYYDSTIELCVGDPEIKKTSFKGDSGGPLVCNKVAQGIVSYGKNNGMPPRACTKVSSFVHWIKKTMKRYAEHEGDAAQPAMAQVQLVESGGGVVQPGRSLRLSCSSSGFIFSDNYMYWVRQAPGKGLEWVATISDGGSYTYYPDSVKGRFTISRDNSKNTLFLQMDSLRPEDTGVYFCARGYYRYEGAMDYWGQGTPVTVSSGGGGSGGGGSGGGGSDIQLTQSPSSLSASVGDRVTITCKSSQSVLYSSNQKNYLAWYQQKPGKAPKLLIYWASTRESGVPSRFSGSGSGTDFTFTISSLQPEDIATYYCHQYLSSWTFGQGTKLEIKAAAGPHHHHHH
As to B1, the IC50/EC50, XTT growth inhibition, HL-60 cells was 2.4 nM and 5.7 nM.

B2: GB-H22(scFv) (scFv)
chain: HIDDDDKIIGGHEAKPHSRPYMAFLMIWDQKSLKRCGGFLIRDDFVLTAAHCWGSSINVTLGAHNIKEQEPTQQFIPVKRAIPHPAYNPKNFSNDIMLLQLERKAKRTRAVQPLRLPSNKAQVKPGQTCSVAGWGQTAPLGKHSHTLQEVKMTVQEDRKCESDLRHYYDSTIELCVGDPEIKKTSFKGDSGGPLVCNKVAQGIVSYGRNNGMPPRACTKVSSFVHWIKKTMKRYGSKLAEHEGDAAQPAMAQVQLVESGGGVVQPGRSLRLSCSSSGFIFSDNYMYWVRQAPGKGLEWVATISDGGSYTYYPDSVKGRFTISRDNSKNTLFLQMDSLRPEDTGVYFCARGYYRYEGAMDYWGQGTPVTVSSGGGGSGGGGSGGGGSDIQLTQSPSSLSASVGDRVTITCKSSQSVLYSSNQKNYLAWYQQKPGKAPKLLIYWASTRESGVPSRFSGSGSGTDFTFTISSLQPEDIATYYCHQYLSSWTFGQGTKLEIKAAAGPHHHHHH
For the molecule B2, the IC50/EC50, XTT growth inhibition, hM1φ is 0.414 nM and 0.14 nM.

(Values after patent US20170369574A1.)
